Data from the nanobody polyreactivity screen of Harvey et al. (2022).

experiment: yeast display, Sf9 membrane polyspecificity reagent, FACS + sequencing; frameworks hold sequencing errors
Method in brief: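 Galactose induction of a Saccharomyces cerevisiae BJ5465 synthetic nanobody display library ran 36–48 hours. The cells were then stained for 1 hour at 4 °C with 10% biotinylated, detergent-solubilized Sf9 membrane reagent, pulled down on streptavidin microbeads and FACS-sorted into low and high (top ~1%) gates on expression and reagent-binding fluorescence. Labels for polyreactivity follow the gate of origin.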

Sequence	polyreactivity (PSR sort gate)
QVQHVESRGGLVQARGSLRLSCAASGRIFSPYAMGWYRQAPGKERELVAAITWSGGSTYYADSVKGRFTISRDNAMNTVYLQMNSLKQEDTAVYYCAADFYRRYYAWEYYYWGQGTQVTVSS	high polyreactivity
QVQLVESGGGLVQAGGSLRLSCAASGSTFYNYAMGWYRQAPGKERELVAAIRNGGGTNYADSVKGRFTISRDNAKITVYLQMNSLKPEDTAVYYCNKAYGVSGPGVDYWGQGTQVTVSS	low polyreactivity
QVQLVESGGGLVQAGGSLRISCAASGSTFVPNTMGWYRQAPGKERELVAAITYSGGSTYYADSVKGRFTISRDYAKNTVYLLMNSLKPEDTEVYYCAAEGTTWYYDMDYWGQGTQVTVSS	low polyreactivity
QDHLVESGGGLVQAGGSLRLSCAASGRTFGRNAMGWYRQAPGKERDFVAAITSSGGSTYYADSVKGRFTISRDNAKNTVYFQMNSLKPEDSAVFYCARSTRYYSWRRMDYWGQGTQVTVSS	high polyreactivity
QVQLVESGGGLVQAGGSLRLSCAASGSIFKSYAMGWYRKAPGKERELVAAITWRSGRTYYADSLKGRFTISRDNAKNTVYLQMNSLKPEDTAVYYCAAELVSVRYLYALHDRDYWGKGTQVTVSS	low polyreactivity
QVQLVESGGGLVQAGGSLRLSCAASGFIFGIYAMGWYRQAPGKEREFVAAITGSAGSTYYADSVKGRFTISRDNAKNTVYLQMNSLKPEDTAVYYCAAVLRTHRYGGYNYWGQGSQVTVSS	low polyreactivity
QVQLVESGGGLVQAGGSLRLSCAASGSIFDWYAMGWYRQAPGKERELVAAIDSSGSSTYYADSVKGRFTISRDNAKNTVYLQMNSLKPEDTAVYYCAADSDWIRYWFGSLYGSDYWGQGTQVTVSS	low polyreactivity
QVQLVESGGGLVQAGGSLRLSCAASGFIFDVYAMGWYRQAPGKERELVAAISRSGGSTHYADSVKGRFTISRDNAKNTVYLQMNSLKPEDTAVYYCATGIRVGYAKYDYWGQGTQVTVSS	high polyreactivity
QVQLVESGGGLVQAGGSLRLSCAASGFTFYYYAMGWYRQAPGKERELVAAISIGGSTYYAGSVKGRFTISRHNEKNTVYLQMNSLKPEDTAVYYCNVVFTYWPPGTARYDYSGQGTQVTVSS	high polyreactivity
QVQLVVSGGGLVQAGGSLRLSCAASGSIFRYYAMGWFRQAPGQERELVASITRGGTSTYYADSVKGRFTISRDNAKNTVYLQMNSLKPDDTAVYYCAAKGYLSRYDNWGLGTQVTVSS	high polyreactivity
QVQLVESGGGLVQAGGSLRLSCASSVYIFVSNTKGWYRPAPGKERELVAAISWSGGSTNYADSVKGRFTISRDKAKNTVYLLMNSLKPEDTAVYYCNADDASHYYFRDDYWGQGTQVTVSS	low polyreactivity
QVQLVESGGGLVQAGGSLRLSCAASGSIFARYAMGWYRQAPGKERELVAAISSSGSRTYYADSVKGRFTISRDNAKNTVYLQMNSLKPEDTAVYYCATRYGSASGREYEYWGQGTQVTVSS	high polyreactivity
QVQLVESGGGLVQAGGSLRLSCAASGSIFSFYTMGWYRQAPGKERELVASSTTYADSVKGRFTISRDNAKNTVYLQMNSLQPEDTAVYYCATRHPARRDYWGQGTQVTVSS	low polyreactivity
QVQLVESGGGLVQAGGSLRLSWAASGSTFEYNVMGWYRQAPGKERELVAAITQGDGGSTYYADSVKGRFTISRDNAKKTVYLQKNSLIPEDTAVYYCNAGYFTEYNSWGQGTEVTVSS	high polyreactivity
QVQLVESGGGLDQAGGSLRLTCAASGSTFEVYAMGWYRQAPGKERELVAVNNVSDGSTYYADSVKGRFTISRDNAKNTVYLQMNSLKPEDTAVYYCAAYLYNRPYQLTGYYDGYGYWGQGTQVTVSS	low polyreactivity
QVQLVESGGGLVQAGGSLRLSCAASGRTFKDYAMGWYRPAPGKERELVAAISWSGGDTYYADSVKGRFTISRDNAKNTVYLQMNSLKPEDTAVYYCNADPSGVFFYSLEFDYWGQGTQVTVSS	low polyreactivity
QVQLVESGGGLVQAGGSLRLICAASGYIFKHNAMGWYRQAPGKERELVAAISWSGVSTYYADSVTGRFTISRDNAKNTVYLQMNSLKPEDTAVYYCNAPAIAPIYDYWGQGTQVTVSS	low polyreactivity
QVQLVESGGGLVQAGGSLRLSCAASGRIFRSIAMGWYRQSPGKERELVAVINSDDSTYYADSVKGRFTISRDNAKNTVYLQMNSLKPEDTAVYYCAAEPQYTRHMDSWGQGTQVTVSS	low polyreactivity
QVQLVESGVGLVQAGGSLRLSCAASGSTIQYYAQGRYRQAPGKEREFVAAISISGGSTYYADSLKGRFTISRDNAKNTVYLQMNSLIPEDSEVYYCAARKKEYKPGKYWGQGTQVTVSS	low polyreactivity
QVQLVESGGGLVQAGGSLRLSCAASGRIFTANAMGWYRQAPGKERELVAAISWRGGSTYYADSVKGRFTISRDNAKNSVYLQLNSLKPEDTAVYYCAAQRYAPYRYEYWGQGTHVTVSS	high polyreactivity
QVQLVESGGGLVQAGGSLRLSCAASGSIFVVNAMGWYRQAPGKERELVAAIRLSGGSTYYADSVKGRFTISRDNAKNTVYLQMNSLKPEDTAVYDCAARYRELRTEYYYWGQGTQVTVSS	high polyreactivity
QVQLVESGGGLVQAGGSLRLSCAASGSTFRRNAMGWYRQAPGKERELVAAISRSGDSTYYADSVKGRFTISRDYAKNTVYLQMNSLKPEDNAVYYCIAHQSRQVGYWGQGTQVTVSS	high polyreactivity

Sequence	polyreactivity (PSR sort gate)
QVHLVESGGGLVQAGGSLRLSCAASGRTFGWNVMGWYRQAPGKERELVAAISGSGGSTYYADSVKGRFTISRDNAKNTVYLQMMSLKPEDTAVYYCAKEYPWMPRSYEYWGQGTQVTVSS	low polyreactivity
QVQLVESGGGLVQAGGSLRLSCAASGSIFEWYAMGWYRLAPGKERELVAVFSVRGGSTYYADSVKGRFTMSRENAKNTVYLQMNSLKPEDTAVYYCAADRVAPYYGHKRFYSGGQGTQVTVSS	high polyreactivity
QVQLVESGGGLVQAGGSLRLSCAASGLTFVPNAMGWYRQAPGKERELVAAISNNGGRTYYADSVKGRFTISRDNAKNNVYLQMNSLKPEDTAVYYCAKYLSPGERHSYDYWGQGTQVTLSS	high polyreactivity
QVQLVESGGGLVQAGGSLRLSCAASGFTFLKYAIGWYRQAPGKERELVAAISFSTGRTYYADSVKGRFTISRDNAKNTVYLQMNSLKPEDPAVYYGAAGYWPGYSLTYRGGFWGQGTQVTVSS	high polyreactivity
QVQLVESGGGLVQAGGSLRLSCDASGNIFSWNTMGWYRKAPGKEWELVAAITFRVTRTFYADSVKGRFTISRDNAKNTVYFLMNSLNPEDTAVYYCAARYYYSYSLGYDYWGQGTQVTVSS	high polyreactivity
QVQLVESGGGLVQAGGSLRLSCAASGRTFGWYAMGWYRQAPGKERELVAAISLSGGSTYYADSVKGRFTISRDNAKNTVYLQMNSLKPEDTAVYYCNALILPTKMGYWGQGTQVTVSS	low polyreactivity
QVQLVESGGGLVQAGGSLRLSCAASGSIFQKYTMGWYRQAPGKERELVAAITRSGGSTYYADSVKGRFTISRDNAKNTVYLQMNSLKPEDSAVYYCNKRYIPWAYDYWGQGTQVTVSS	high polyreactivity
QVQLVESGGGLVQAGGSLRLSCAASGSIFYYFALGWYRQAPGTERELVAAISRSGGRTYYADSVKGRFTISRDNAKNPVYLHMNSLKPEDTAFYYCNTDGYYTTAKYGYWGQGTQVTVSS	high polyreactivity
QVQLVESGGGLVQAGGSLRLSCAASGSIFNYNDMGWYRQAPGKERELVAAIDSSGTSTYYADSVKGRFTISRDNAKNTVYLQMTSLKPEDTAVYYCNADYRGWGYHMDYWGQGTQVTVSS	low polyreactivity
QVQLVESAAGLVQAGASLRLSCAASGRTSTQNAMGWYRQAPGKERELVAAITTGGGSTYYADSVKGRFTISRDNAKYTVYLQMNSLKPEDTAVYYCAARTPQRSEWTQYGYWGQGTQVTVSS	low polyreactivity
QVQLVESGGGLVQAGGSLRLSCAASGRTFNYYTMGWNRQAPGKEREFVAAITISGARTYYADSVKGRFTISRDNAKNTVYLQMNSLKPEDTAVYYCAARRRYRSRVTPVGYNYWGQGTQVTVSS	high polyreactivity
QVQLEESGGGLDQAGGSLRLSCAASGNIFYGNAMGWYIQAAGKERALVARISGTGRTNYADSVKGRFTISRDNAKNTVYLQMNSLKPEDTAVYYCAKYGYRSRYGYDYWGQGTQVTVTS	high polyreactivity
QVQLVESGGGLVQAGGSLRLSCAASGRTFWGYAMGWYRQAPGKERELVATISSTGSTNYADSVKGRFTISRDNAKNPVYLQMNSLKPEDTAVYYCNAKRHLYRGWYQRYDYWGQGTQVTVSS	high polyreactivity
QVQLVESGGGLVQAGGSLRLSCAASGRTFVSYAMGWYRQAPGKERELVAAIRYRGGSTYYADSVKGRFTISRDNAMNTVYLQMNSLKPEDTAVYYCAANQGRYNIYSNYDYWGQGTQVTVSS	high polyreactivity
QVQLVESGGGLVQAGGSLRLSCAASGSIFGYYAMGWYRQAPGKERELVATITTRGARTYYADSVKGRFTISRDNAKNTVYLQMNSLKPEDTAVYYCAAYGYYNFGYYYWGQGTQVTVSS	high polyreactivity
QVQLVESGGGLVQAGGSLRLSCAASGLTFNRYAMGWYRQARGKERELVAAISINGGSTYYADSVKGRFTISRDNAKNTVYLQMNSLKPEDTAVYYCAARRVQRPSTYGYWGQGTQVTVSS	high polyreactivity
QVQVVESGGGLVQAGGSLRLSCAASGGTFSPYDMGWYRQAPGKERELVASITRSGGSTYYADSVKGRFTISRGNSKNTVYLQMNSLKPEDTAVYYCAAQGYWTYWPYLLRLYDYWGQGTQVTVSS	low polyreactivity
QVQHVESGGGLVQAGGSLRLSCDASGRIFAKYAMGWYRQAHGKERELVAGISWGGGSTYYADSVKGRFTISRDNAKNTVYLQMNSLKPEDTAVYYCAARIPKQRDVRGSGMNYWGQGTQVTVSS	high polyreactivity
QVQLVESGGGLVQAGGSLRLSCAASGFISRKNAMGWYRQAPGKERELVAAISKSGGRTYYADSVKGRFTISRDNAKNTVYLQMNSLKPEDTAVYYCNRVPRDSWPYAWYDYWGQGTQVTVSS	high polyreactivity
QVQLVESGVGLVQAGGSLRLSCAPSGSTFWVNGMGWYRPAPGKERELVASISQSGDNTYYADSVKGRFTISRDNAKNTVYLQMNSLKPEDTAVSYCATRYQYGGFLYYRFDDWGQGTQVTVSS	high polyreactivity
QVQHVESGGGLVQAGGSLRLSCAASGSTFSKYAMGWYRLAPGKERELVAAINYGGTSTYYADSVKGRFTISRDNAKNTVYLQMNSLKPEDTAVYYCAVIYRRLYTGGQNPYDYWGQGTQVTVSS	high polyreactivity
